The record followed here is patent US20250092108A1.

In the assay the target is IL-2 receptors (high-affinity IL-2Rαβγ or intermediate-affinity IL-2Rβγ) on PBMC lymphocytes (UniProt P01589). Briefly: cell-based or functional assay.
Chain of IL-2 receptors (high-affinity IL-2Rαβγ or intermediate-affinity IL-2Rβγ) on PBMC lymphocytes (P01589 22-272 limits assumed, chain 1 of 3): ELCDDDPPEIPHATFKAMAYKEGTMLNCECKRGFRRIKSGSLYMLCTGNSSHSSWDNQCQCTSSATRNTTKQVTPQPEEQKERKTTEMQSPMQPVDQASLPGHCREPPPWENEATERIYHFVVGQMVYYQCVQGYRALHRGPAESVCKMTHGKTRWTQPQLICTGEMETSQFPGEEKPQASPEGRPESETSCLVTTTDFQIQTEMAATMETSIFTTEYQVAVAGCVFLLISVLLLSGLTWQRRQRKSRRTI
Chain of IL-2 receptors (high-affinity IL-2Rαβγ or intermediate-affinity IL-2Rβγ) on PBMC lymphocytes (P14784 27-551 limits assumed, chain 2 of 3, further chain): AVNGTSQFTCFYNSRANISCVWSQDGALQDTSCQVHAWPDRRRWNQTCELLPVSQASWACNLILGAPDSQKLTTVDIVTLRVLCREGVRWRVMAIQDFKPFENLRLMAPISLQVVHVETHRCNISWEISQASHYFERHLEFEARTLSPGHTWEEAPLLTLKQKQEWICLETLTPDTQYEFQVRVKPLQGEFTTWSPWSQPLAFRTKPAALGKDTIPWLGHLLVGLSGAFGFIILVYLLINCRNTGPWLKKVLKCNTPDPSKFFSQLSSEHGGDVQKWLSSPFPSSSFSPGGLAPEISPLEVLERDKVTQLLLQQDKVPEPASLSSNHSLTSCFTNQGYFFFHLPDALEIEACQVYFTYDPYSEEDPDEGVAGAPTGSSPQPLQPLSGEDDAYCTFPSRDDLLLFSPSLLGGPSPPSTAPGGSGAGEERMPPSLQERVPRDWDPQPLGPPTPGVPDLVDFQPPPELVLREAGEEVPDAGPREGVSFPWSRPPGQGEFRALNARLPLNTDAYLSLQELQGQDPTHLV
Chain of IL-2 receptors (high-affinity IL-2Rαβγ or intermediate-affinity IL-2Rβγ) on PBMC lymphocytes (P31785 23-369 limits assumed, chain 3 of 3, further chain): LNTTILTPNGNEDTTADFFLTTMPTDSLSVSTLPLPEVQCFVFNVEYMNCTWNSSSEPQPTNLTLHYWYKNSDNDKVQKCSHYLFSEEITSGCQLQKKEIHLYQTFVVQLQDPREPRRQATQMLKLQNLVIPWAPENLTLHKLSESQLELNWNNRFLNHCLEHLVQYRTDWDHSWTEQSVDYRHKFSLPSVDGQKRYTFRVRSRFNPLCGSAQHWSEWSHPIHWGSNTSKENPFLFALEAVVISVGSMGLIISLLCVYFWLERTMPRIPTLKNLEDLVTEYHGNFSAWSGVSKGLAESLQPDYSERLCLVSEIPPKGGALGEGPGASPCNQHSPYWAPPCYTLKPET

The substance “XENP27193, an Fc-IL-2(V91K/C125A) fusion as described in WO 2014/153111 (from UniProt P60568 21-153) (Fc fusion)” returned an EC50, induction of STAT5 phosphorylation (in vitro potency) of 0.01 nM.
